Experimental data taken from US5492822A, “Method for recovering purified 100,000 dalton molecular weight fraction of human pancreatic cholesterol esterase” (Lange, III; Louis G., priority 1995, dated 1996).

Legend:
[1] = Cleavage of cholesterol oleate, 100 kDa enzyme compared with 52 kDa triglyceride lipase; format: biochemical, human
From the text: (§1) Human pancreatic cholesterol esterase (100 kDa) and human pancreatic triglyceride lipase (52 kDa) were purified to homogeneity (Examples 1 and 3), and their abilities to cleave triglycerides and cholesteryl esters were compared. […] Virtually the same results were found with cholesteryl esters; the 100 kDa enzyme cleaved cholesterol oleate at a rate at least 490-fold greater than that found for the 52 kDa triglyceride lipase.

[2] = target: T1, human pancreatic cholesterol esterase (Homo sapiens, UniProt P19835); assay: Binding of 125I-cholesterol esterase to small intestine vesicles and its displacement; settings: specific binding, 15 min at 37°, 10 mM Tris-Cl pH 7.2; read-out: KD of cholesterol esterase binding to small intestine vesicles (Scatchard analysis)
T1 construct: from tissue; host or cells: human pancreas (autopsy)
T1 sequence (P19835 21-753): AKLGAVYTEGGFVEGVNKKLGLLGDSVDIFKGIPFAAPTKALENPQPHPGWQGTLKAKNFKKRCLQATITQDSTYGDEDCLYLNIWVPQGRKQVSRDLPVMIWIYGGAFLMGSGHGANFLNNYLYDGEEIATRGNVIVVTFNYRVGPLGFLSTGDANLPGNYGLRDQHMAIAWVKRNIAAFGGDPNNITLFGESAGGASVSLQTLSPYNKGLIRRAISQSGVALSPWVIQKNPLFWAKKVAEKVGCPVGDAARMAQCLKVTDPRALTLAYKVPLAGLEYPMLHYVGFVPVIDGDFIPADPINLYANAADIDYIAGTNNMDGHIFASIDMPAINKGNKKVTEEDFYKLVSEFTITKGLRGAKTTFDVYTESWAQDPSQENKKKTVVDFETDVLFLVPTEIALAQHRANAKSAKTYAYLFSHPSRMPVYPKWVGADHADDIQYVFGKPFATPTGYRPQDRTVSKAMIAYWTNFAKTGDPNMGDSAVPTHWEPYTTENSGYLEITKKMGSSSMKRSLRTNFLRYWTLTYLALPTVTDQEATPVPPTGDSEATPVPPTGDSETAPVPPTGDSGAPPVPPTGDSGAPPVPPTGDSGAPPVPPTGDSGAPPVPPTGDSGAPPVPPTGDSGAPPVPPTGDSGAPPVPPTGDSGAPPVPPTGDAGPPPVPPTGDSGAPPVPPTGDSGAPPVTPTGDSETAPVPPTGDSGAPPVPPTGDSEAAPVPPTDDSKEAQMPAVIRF
Description: (§2) Vesicles contained 1.0 mg protein/ml, 30 ug total cholesterol/mg protein and 50 ug endogenous heparin/mg protein. ^125 I-cholesterol esterase (100K or 67K form) was added (0 to 400 pmol; 2,000 dpm/pmol) to 100 ug of protein of small intestine vesicles in 10 mM Tris-Cl, pH 7.2 for 15 min. at 37°. The concentration of offered ^125 I-cholesterol esterase varied between 10 nM and 1 uM. Experiments were performed utilizing 1% blotto to decrease nonspecific protein binding to the vesicles. After the 15 minute incubation at 37°, the reaction was quenched and the assay mixtures were filtered through wells of a Millipore system containing 0.2 micron pore filters presoaked in buffer. The filtrate was-collected to assess free (unbound) enzyme, and the filters were then immediately washed with 15 ml of cold buffer and counted for ^125 I. Total binding was defined as ^125 I-dpm bound to filter paper minus ^125 I-dpm detected in the same reaction without vesicles (background). Nonspecific binding (radioactivity bound to the vesicles in the presence of excess cold ligand) was quantitated as the amount of ^125 I-cholesterol esterase binding in the presence of a 1000-fold molar excess of unlabeled cholesterol esterase as described above. Specific binding is defined as the difference between total bound dpm and nonspecific-bound dpm (converted to moles bound by dividing by the SRA).

[3] = system: human pancreatic cholesterol esterase; assay: as above; settings: in the presence of 5 mM taurocholate
Description: as §2

[4] = system: intestinal cells (colonic adenocarcinoma cells CaCo-2); assay: Cellular uptake of 3H-cholesterol from 3H-cholesterol oleate; format: cell-based; settings: 5 nM human pancreatic cholesterol esterase (100 K), 1.5 mM taurocholate, no heparin
Description: For example, intestinal cells (colonic adenocarcinoma cells CaCo-2, American Type Cell Culture) were grown in T150 flasks in medium consisting of DME, 10% v/v fetal bovine serum, 50 ug/ml gentamicin and 2 mM sodium pyruvate. Uptake experiments were conducted using 10^5 intestinal cells in PBS buffer containing 5 mM CaCl2, pH 7.4 in the presence of 5 uM ^3 H-cholesterol oleate (SRA=50 dpm/pmol) embedded in phosphatidylcholine vesicles along with 10% v/v lipoprotein-depleted serum and 1.5 mM taurocholate. At time zero, 5 nM human pancreatic cholesterol esterase (100 K, homogeneous) was added to one set of flasks, an equivalent volume of buffer to another set, and 1 mg/ml final concentration bulk heparin together with 5 nM enzyme to a third set. At selected times, i.e., 0, 15, 30, 60, 120 and 480 min, medium was removed and the cells were washed with medium to allow quantitation of ^3 H-cholesterol uptake. In the absence of enzyme, cellular uptake of ^3 H-cholesterol was linear and occurred at a rate of 400 dpm/hr/10^5 cells. In the presence of cholesterol esterase, the rate of ^3 H-cholesterol uptake was 1,800 dpm/hr/10^5 cells.

[5] = target: T2, human pancreatic cholesterol esterase (100 kDa) (Homo sapiens, UniProt P19835); assay: Triolein hydrolysis by human pancreatic cholesterol esterase (100 kDa); format: biochemical; settings: purified 100 kDa esterase, in the presence of 5 mM taurocholate
T2 construct: from tissue; host or cells: human pancreas (autopsy)
T2 sequence (P19835 21-753): T1 sequence (P19835 21-753)
From the text: as §1

B1: Human pancreatic cholesterol esterase (100K form): 100,000 molecular weight form of human pancreatic cholesterol esterase purified over heparin agarose (protein, UniProt P19835 21-753, looked up)
Bile salt-activated lipase: T1 sequence (P19835 21-753)
rate of cholesterol oleate cleavage relative to the 52 kDa triglyceride lipase [1]: at least 490 fold
Kd [2]: 100 nM
specific binding to vesicles retained [3]: 72%
rate of 3H-cholesterol uptake [4]: 1,800 dpm/hr/10^5 cells
rate of triolein hydrolysis [5]: 1,970 nmol/hr/g pancreas
